Reference: patent US20230331820A1 (GlaxoSmithKline, published 2023)
Read-outs that look alike come from different tables or passages of the source.

Experiments:
[1] = target: T1, gEgI WT: HSV2 gEgI heterodimer comprising gE and gI wildtype ectodomains (HSV2, UniProt P89475 21-416; P06764 21-256); test: SPR binning; gEgI captured by mAb 19
[2] = target: T1, gEgI WT: HSV2 gEgI heterodimer …; test: SPR binning; gEgI captured by mAb 5
[3] = target: T1, gEgI WT: HSV2 gEgI heterodimer …; test: SPR binning; gEgI captured by mAb 17
[4] = target: T1, gEgI WT: HSV2 gEgI heterodimer …; test: SPR binning; gEgI captured by mAb 24
[5] = target: T1, gEgI WT: HSV2 gEgI heterodimer …; test: SPR binning; gEgI captured by mAb 20
[6] = target: T1, gEgI WT: HSV2 gEgI heterodimer …; test: SPR binning; gEgI captured by mAb 9
[7] = target: T1, gEgI WT: HSV2 gEgI heterodimer …; test: SPR binning; gEgI captured by mAb 45
[8] = target: T1, gEgI WT: HSV2 gEgI heterodimer …; test: SPR binning; gEgI captured by mAb 39
[9] = target: T1, gEgI WT: HSV2 gEgI heterodimer …; test: SPR binning; gEgI captured by mAb 40
[10] = target: T1, gEgI WT: HSV2 gEgI heterodimer …; test: SPR binning; gEgI captured by mAb 10
[11] = target: gE WT: HSV2 gE wildtype ectodomain (HSV2, UniProt P89475 21-416); test: ELISA, supernatant
[12] = target: T2, gI WT: HSV2 gI wildtype ectodomain (HSV2, UniProt P06764 21-256); test: ELISA, supernatant
[13] = target: gEgI mutant (338): HSV2 gEgI mutant heterodimer comprising gE and gI ectodomains with insertion of a (HSV2, UniProt P89475 21-416; P06764 21-256); test: ELISA, supernatant
[14] = target: T1, gEgI WT: HSV2 gEgI heterodimer …; test: SPR binning; gEgI captured by mAb 15
[15] = target: T1, gEgI WT: HSV2 gEgI heterodimer …; test: SPR binning; gEgI captured by mAb 42
[16] = target: T1, gEgI WT: HSV2 gEgI heterodimer …; test: SPR binning; gEgI captured by mAb 34
[17] = target: T1, gEgI WT: HSV2 gEgI heterodimer …; test: Biacore SPR, gEgI HEK BMP1063 at 10 µg/ml for 180 s over the mAb
[18] = target: T1, gEgI WT: HSV2 gEgI heterodimer …; test: Biacore SPR, gEgI CHO BMP1181 at 10 µg/ml for 180 s over the mAb
[19] = target: T2, gI WT: HSV2 gI wildtype ectodomain; test: ELISA, supernatant; remark: listed apart in the source

Binder | RU [1] [RU] | RU [2] [RU] | RU [3] [RU] | RU [4] [RU] | RU [5] [RU] | RU [6] [RU] | RU [7] [RU] | RU [8] [RU] | RU [9] [RU] | RU [10] [RU] | binding result [11] | binding result [12] | binding result [13] | RU [14] [RU] | RU [15] [RU] | RU [16] [RU] | RU Ag/250 RU mAbs [17] [RU Ag/250 RU mAbs] | RU Ag/250 RU mAbs [18] [RU Ag/250 RU mAbs] | binding result [19]
mAb clone 17 (antibody, V domains shown) VH: QVQLKESGPGLVAPSQSLSITCTVSGFSLTSYGVHWVRQPPGKGLEWLGVIWAGGSSNYNSALMSRLSISKDNSKSQVFLKMNSLQTDDTAMYYCARDGYGYVYYAMDYWGQGTSVTVSS VL: DIVMTQAAPSVPVTPGESVSISCRSSKSLLHSNGNTYLYWFLQRPGQSPQLLIYRMSNLASGVPDRFSGSGSGTAFTLRISRVEAEDVGVYYCMQHLEYPFTFGAGTKLELK | -6.3 | 0.5 | -8.7 | -2 | 2.2 | -0.5 | -2.6 | 0.5 | -2.4 | 4.6 | no binding | no binding | binds | -6.7 | -0.8 | -9.4 |  |  | 
mAb clone 5 (antibody, V domains shown, also called mAb 5; GEGI/5IIa) VH: EVKLVESGGGLVQPGGSLRLSCATSGFTFSDFYMEWVRQPPGKRLEWIAASRNKANDYTTEYSASVKGRFIVSRDTSQSILYLQMNALRAEDTAIYYCARDFLPYYGSPWFAYWGQGTLVTVSA VL: DIVMTQSPATLSVTPGDRVSLSCRASQSISDYLHWYQQKSHESPRLLIKYASQSISGIPSRFSGSGSGSDFTLSINSVEPEDVGVYYCQNGHSFPYTFGGGTKLEIK |  |  |  |  |  |  |  |  |  |  |  | no binding |  |  |  |  |  |  | 
mAb clone 15 (antibody, V domains shown) VH: QVQLKESGPGLVAPSQSLSITCTVSGFSLTSYGVSWVRQPPGKGLEWLGVIWGDGSTNYHSALISRLSISKDNSKSQVFLKLNSLQTDDTATYYCAKPDLYYDSPYAMDYWGQGTSVTVSS VL: DIQMTQSPASLSASVGETVTITCRASGNIHNYLAWYQQKQGKSPQLLVYNAKTLADGVPSRFSGSGSGTQYSLKINSLQPEDFGSYYCQHFWSTPWTFGGGTKLEIK | 7.6 | 13.5 | 3.4 | 9.9 | 13 | 12.7 | 8.7 | 11.7 | 6.9 | 13.4 | no binding | no binding | binds | -4.9 | 9.8 | 5.9 | 31.5 | 30.4 | 
mAb clone 9 (antibody, V domains shown) VH: EVQLQQSGPELEKPGASVKISCKASGYSFTGYNMNWVKQSNGKSLEWIGNIDPYYGGTSYNQKFKGKATLTLDKSSSTAYMQLKSLTSEDSAVYYCARSRFITTVVATDYYAMDYWGQGTSVTVSS VL: not shown | -5.1 | 9.4 | 7.8 | -0.1 | 4.8 | -0.4 | 1.8 | 9 | 6 | 11 | no binding | no binding | binds | 5.5 | 7 | 0.9 |  |  | 
mAb clone 18 (antibody, V domains shown, also called mAb 18; mAb18) VH: QVQLQQSGAELVRPGTSVKMSCKAAGYTFTNYWIGWVKQRPGHGLEWIGDIYPGGGYTKYNEKFKGKATLTADTSSSTAYMQLSSLTSEDSAIYYCARDGYSPYWGQGTSLTVSS VL: TIVMTQTPKFLLVSAGDRVTITCKASQSVSNAVAWYQQKPGQSPKLLIYSASNRYTGVPDRFTGSGYGTDFTFTISSVQAEDLAVYFCQQDYTSPFTFGSGTKLEIK |  |  |  |  |  |  |  |  |  |  |  |  |  |  |  |  |  |  | no binding
mAb clone 3, 21 (antibody, V domains shown) VH: EVQLQQSGPELVKPGASVKISCKTSGYTFTEYTMHWVKQSHGKSLEWIGGINPNNGGTSYNQKFKGKATLTVDKSSSTAYMELRSLTSEDSAVYYCARSLVEGDFAYWGQGTLVTVSA VL: DIVLTQSPASLAVSLGQRATISCRASQSVSTSSYSYMHWYQQKPGQPPKLLIKYASNLESGVPARFSGSGSGTDFTLNIHPVEEEDTATYYCQHSWEIPYTFGGGTKLEIK |  |  |  |  |  |  |  |  |  |  | binds | no binding | binds |  |  |  | 5.89 | 3.41 | 
mAb clone 24 (antibody, V domains shown) VH: EVQLQQSGPELVKPGASVKMSCKASGYTFTDYYMKWVKQSHGKSLEWIGDINPNNGDTFYNQKFKGKATLTVDKSSSTAYMQLNSLTSEDSAVYYCARRGFYYYGSRGGIMDYWGQGTSVTVSS VL: NIMMTQSPSSLAVSAGEKVTMSCKSSQSVLYSSNQKNYLAWYQQKPGQSPKLLIYWASTRESGVPDRFTGSGSGTDFTLTISSVQAEDLAVYYCHQYLSSYTFGGGTKLEIK | 13.3 | 34.4 | 32.1 | 6.4 | 17.7 | 17 | 26.8 | 30.5 | 28.3 | 39.1 | no binding | no binding | binds | 42.6 | 30.7 | 20.7 |  |  | 
mAb clone 20 (antibody, V domains shown) VH: QVQLQQSGAELVRPGTSVKVSCKASGYAFTNYLIEWVKQRPGQGLEWIGVINPGSGGTNYNEKFKGKATLTADKSSSTAYMQLSSLTSDDSAVYFCARSHYGNYYAMDYWGQGTSVTVSS VL: NIVLTQSPASLAVSLGQRATISCRASESVDSYGNSFMHWYQQKPGQPPKLLIYLASNLESGVPARFSGSGSRTDFTLTIDPVEADDAATYYCQQNNEDPWTFGGGTKLEIK | 6.5 | 25.3 | 24 | 7.3 | 9.7 | 13 | 16.4 | 23.8 | 21.3 | 32.8 | no binding | no binding | binds | 18.5 | 24.5 | 13.4 |  |  | 
mAb clone 2 (antibody, V domains shown) VH: QVQLQQSGAELVRPGTSVKVSCKASGYAFTNYLIEWVKQRPGQGLEWIGVINPGSGGTNYNEKFKGKATLTADKSSSTAYMQLSSLTSDDSAVYFCARSRGYPYAMDYWGQGTSVTVSS VL: not shown |  |  |  |  |  |  |  |  |  |  | no binding |  | binds |  |  |  | 1.24 | -1.26 | binds
mAb clone 10 (antibody, V domains shown) VH: EVKLVESGGGLVQPGGSLRLSCATSGFTFSDFYMEWVRQPPGKRLEWIAASRNKANDYTTEYSASVKGRFIVSRDTSQSILYLQMNALRAEDTAIYYCARENYGNPAMDYWGQGTSVTVSS VL: not shown | 2.3 | 10.6 | 8.2 | 8.2 | 10.8 | 8.3 | -2 | 10.3 | 8.3 | 4 | no binding | no binding | binds | 3.3 | 9.4 | 2 |  |  | 
